In patent US11613587B2, “Combination therapy of T cell activating bispecific antigen binding molecules and PD-1 axis binding antagonists” (Hoffmann-La Roche Inc., priority 2014, dated 2023):

B1: Mov19: reference human FolR1 binder, control IgG (antibody, V domains shown)
VH: QVQLQQSGAELVKPGASVKISCKASGYSFTGYFMNWVKQSHGKSLEWIGRIHPYDGDTFYNQNFKDKATLTVDKSSNTAHMELLSLTSEDFAVYYCTRYDGSRAMDYWGQGTTVTVSS
VL: DIELTQSPASLAVSLGQRAIISCKASQSVSFAGTSLMHWYHQKPGQQPKLLIYRASNLEAGVPTRFSGSGSKTDFTLNIHPVEEEDAATYYCQQSREYPYTFGGGTKLEIK
B2: 36F2: anti-FolR1 clone from generic multi-framework Fab library (Vk_3_20/VH_1_46) (antibody, V domains shown)
VH: QVQLVQSGAEVKKPGASVKVSCKASGYTFTSYYMHWVRQAPGQGLEWMGIINPSGGSTSYAQKFQGRVTMTHDTSTSTVYMELSSLRSEDTAVYYCARSFFTGFHLDYWGQGTLVTVSS
VL: EIVLTQSPGTLSLSPGERATLSCRASQSVSSSYLAWYQQKPGQAPRLLIYGASSRATGIPDRFSGSGSGTDFTLTISRLEPEDFAVYYCQQYTNEHYYTFGQGTKVEIK

Assays:
huFolR1-Fc = assay: Epitope binning (SPR); assay type: binding, human; conditions: 500 nM huFolR1-Fc, 500 nM binder
Protocol: 500 nM huFolR1-Fc was then captured for 60 s, followed by 500 nM of the different binders for 30 s. The surface was regenerated with two injections of 10 mM glycine pH 2 for 30 s each.

[1] = test system: erythrocytes (CD235a positive); assay: Binding to erythrocytes (flow cytometry); parameters: species or system human
[2] = test system: HEK cells transiently transfected with cyno FolR1; assay: Cross-reactivity to cyno FolR1 on transfected HEK cells (flow cytometry); assay type: binding, cynomolgus; conditions: IgG
Source text: FIGS. 4A-B depict graphs summarizing cross-reactivity of FolR1 binders to cyFoLR1. Cross-reactivity of the FolR1 antibodies to cyno FolR1 was addressed on HEK cells transiently transfected with cyFolR1 by flow cytometry.
New FolR1 binders were generated via Phage Display using either a Fab library or a common light chain library using the CD3 light chain. The identified binders were converted into a human IgG1 format and binding to FolR1 high expressing HeLa cells was addressed. As reference molecule the human FolR1 binder Mov19 was included. […] In a next step the selected clones were tested for specificity to human FolR1 by excluding binding to the closely related human FolR2. HEK cells were transiently transfected with either human FolR1 or human FolR2 to address specificity. […] Therefore these clones were excluded from further characterization. In parallel cross-reactivity of the FolR1 clones to cyno FolR1 was addressed by performing binding studies to HEK cells transiently transfected with cyno FolR1. […] Subsequently three human FolR1 specific cyno cross-reactive binders were converted into TCB format and tested for induction of T cell killing and T cell activation. […] As reference molecule Mov19 FolR1 TCB was included in all studies. These FolR1 TCBs were then used to compare induction of internalization after binding to FolR1 on HeLa cells.

human FolR1 = molecular target: T1, human FolR1 (Homo sapiens, UniProt P15328); assay: SPR single injections of anti-FolR1 IgGs (Biacore T200); assay type: binding
T1 construct: the extracellular domain of the antigen linked to the hinge region of Fc-knob which is co-expressed with an Fc-hole molecule; made in house; host or cells: HEK293 EBNA
Source text: The immobilization level was about 300-400 RU.

Row | Molecule | binding of analyte in solution to huFolR1 captured on immobilized 16D5 TCB (huFolR1-Fc) | binding of analyte in solution to huFolR1 captured on immobilized 21A5 TCB (huFolR1-Fc) | binding of analyte in solution to huFolR1 captured on immobilized Mov19 IgG (huFolR1-Fc) | binding to erythrocytes [1] | binding to cyno FolR1 [2] | dissociation from huFolR1 (human FolR1)
1 | B1 | + (+means binding) | + (+means binding) | − | could not observe any specific binding |  | 
2 | B2 | + (+means binding) | + (+means binding) | − |  | bind comparably well human and cyno FoLR1 | dissociated rapidly from huFolR1
